Measured values reported in paper PMC11040377, “Lymphocyte‐Activation Gene 3 Facilitates Pathological Tau Neuron‐to‐Neuron Transmission” (Advanced Science, 2024).

Assays:
[1] = target: T1, Tau-biotin PFF (AD-Tau-induced Tau preformed fibrils, biotin-labelled) (human, UniProt P10636-8 1-441, biotin (Sulfo-NHS-LC-Biotin)); assay: ELISA; Tau-biotin PFF and human recombinant LAG3; format not described in the text shown; conditions: both partners purified
T1 construct: Tau, human, WT isoform T40 (2N4R), 441 amino acid residues; Fibrillar assembly of many Tau chains; concentrations are monomer equivalents; also called Tau PFF; AD-Tau-induced Tau PFF-biotin; source: E. coli BL21(DE3), purified (HiTrap SP HP); fibrillised with AD-Tau seeds from AD brains, sonicated

amyloid-β (Aβ) PFF = assay: cell surface binding assay (streptavidin-alkaline phosphatase staining); SH-SY5Y cells transfected with Lag3 or its deletion mutants; biotin-labelled ligand at different concentrations (monomer equivalent) in DMEM with 10% FBS, 2 h at RT; washed, fixed, bound biotin detected with streptavidin-AP and BCIP/NBT; intensity by ImageJ, KD by GraphPad Prism; conditions: one partner purified
[2] = target: Tau oligomers (globular, 30% sucrose fraction), biotin-labelled (human, biotin); assay: as above; conditions: one partner purified

T1 sequence (P10636 other isoform, or with tags, fused parts or gaps): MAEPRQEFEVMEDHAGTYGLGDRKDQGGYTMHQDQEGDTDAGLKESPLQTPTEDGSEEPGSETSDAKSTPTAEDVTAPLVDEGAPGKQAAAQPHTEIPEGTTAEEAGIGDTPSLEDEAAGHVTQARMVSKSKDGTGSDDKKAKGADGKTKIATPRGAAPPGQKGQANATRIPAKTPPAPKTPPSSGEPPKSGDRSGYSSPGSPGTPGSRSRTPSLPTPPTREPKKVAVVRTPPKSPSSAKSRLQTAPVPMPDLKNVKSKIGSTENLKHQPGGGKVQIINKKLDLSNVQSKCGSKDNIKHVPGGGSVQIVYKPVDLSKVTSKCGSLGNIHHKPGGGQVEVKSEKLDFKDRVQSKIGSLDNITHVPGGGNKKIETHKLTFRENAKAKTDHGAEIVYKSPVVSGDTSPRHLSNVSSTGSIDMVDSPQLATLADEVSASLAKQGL

Row | Binder | Kd [1] | Kd (amyloid-β (Aβ) PFF) | Kd [2]
1 | human recombinant LAG3 (receptor) LQPGAEVPVVWAQEGAPAQLPCSPTIPLQDLSLLRRAGVTWQHQPDSGPPAAAPGHPLAPGPHPAAPSSWGPRPRRYTVLSVGPGGLRSGRLPLQPRVQLDERGRQRGDFSLWLRPARRADAGEYRAAVHLRDRALSCRLRLRLGQASMTASPPGSLRASDWVILNCSFSRPDRPASVHWFRNRGQGRVPVRESPHHHLAESFLFLPQVSPMDSGPWGCILTYRDGFNVSIMYNLTVLGLEPPTPLTVYAGAGSRVGLPCRLPAGVGTRSFLTAKWTPPGGGPDLLVTGDNGDFTLRLEDVSQAQAGTYTCHIHLQEQQLNATVTLAIITVTPKSFGSPGSLGKLLCEVTPVSGQERFVWSSLDTPSQRSFSGPWLEAQEAQLLSQPWQCQLYQGERLLGAAVYFTELSSPGAQRSGRAPGALPAGHL | 3 nM | – | –
2 | Lag3 (lymphocyte-activation gene 3), on transfected SH-SY5Y cells (receptor, UniProt Q61790 24-521, looked up, also called FL; Lag3-expressing SH-SY5Y cells; source: SH-SY5Y cells, transiently transfected (Lipofectamine 2000), on cells) GPGKELPVVWAQEGAPVHLPCSLKSPNLDPNFLRRGGVIWQHQPDSGQPTPIPALDLHQGMPSPRQPAPGRYTVLSVAPGGLRSGRQPLHPHVQLEERGLQRGDFSLWLRPALRTDAGEYHATVRLPNRALSCSLRLRVGQASMIASPSGVLKLSDWVLLNCSFSRPDRPVSVHWFQGQNRVPVYNSPRHFLAETFLLLPQVSPLDSGTWGCVLTYRDGFNVSITYNLKVLGLEPVAPLTVYAAEGSRVELPCHLPPGVGTPSLLIAKWTPPGGGPELPVAGKSGNFTLHLEAVGLAQAGTYTCSIHLQGQQLNATVTLAVITVTPKSFGLPGSRGKLLCEVTPASGKERFVWRPLNNLSRSCPGPVLEIQEARLLAERWQCQLYEGQRLLGATVYAAESSSGAHSARRISGDLKGGHLVLVLILGALSLFLLVAGAFGFHWWRKQLLLRRFSALEHGIQPFPAQRKIEELERELETEMGQEPEPEPEPQLEPEPRQL | – | 310 nM | 1300 nM
